Here are results for one molecule from US20250215467A1, “L-THREONINE TRANSALDOLASES AND USES THEREOF” (University of Delaware, priority 2022, published 2025).

Data set [1] is described as follows: TTA-ADH coupled assay at different L-Thr concentrations (apparent L-Thr KM and kcat). Format: biochemical. How it is done:
(§1) High-throughput screening of purified TTAs was performed with a TTA-ADH coupled assay using purified TTA and commercially available alcohol dehydrogenase from S. cerevisiae purchased from MilliporeSigma. Aldehyde stocks were prepared in 50-100 mM solutions in DMSO or acetonitrile. Reaction mixtures were prepared in a 96-well plate with 100 μL of 100 mM phosphate buffer pH 7.5, 0.5 mM NADH, 0.4 mM PLP, 15 mM MgCl2, and 100 mM L-Thr with the addition of 0.25 mM to 1 mM aldehyde depending on the background absorbance at 340 nm (Table 4), 10 U ScADH, and 0.25 μM purified TTA unless otherwise specified. Reactions were initiated with the addition of enzyme. […] The following controls were included for every assay: reaction mixture without aldehyde, without TTA, and without enzyme (TTA or ADH). Rates were calculated by identifying the linear region at the beginning of the kinetic run and converting the depletion in absorbance to the depletion of mM NADH using an NADH standard curve.
We next sought to determine the affinity of these enzymes for L-Thr, which we obtained by performing the TTA-ADH coupled assay at different L-Thr concentrations (FIG. 16b). […] Two differences between our assays were the substrate, phenylacetaldehyde (14) instead of 4-nitrophenylacetylaldehyde (15), and the assay format, ADH coupling rather than a discontinuous HPLC assay. Because a live cellular environment would also contain alcohol dehydrogenases for reduction of acetaldehyde, it is possible that the KM values that we are measuring using the TTA-ADH coupled assay may be more realistic for our envisioned applications.

A short description of data set [2]: TTA-ADH coupled assay, substrate scope of TTAs on aromatic aldehydes. Type of data set: biochemical. How it is done:
as §1
We specifically selected substrates with ring substituents with different electron withdrawing properties (1, 3, 6, 7, 8), substituent size (12), and aldehyde chain length (15) to compare the activity of the putative TTAs to ObiH. We were also encouraged by the activity of PbTTA and KaTTA on vanillin and protocatechualdehyde which are substrates that would form products like commercially available therapeutic, Droxidopa (FIG. 18).
To explore the possibility that DbTTA and TmTTA are TTAs active on other related aldehydes, we sought to examine their activity with L-Thr and aldehyde substrates with different ring substituent position (2), bulkier, hydrophobic chemistry (10), and aldehyde chain length (14) using the TTA-ADH coupled assay.

For another data set, the system named is E. coli RARE strain. In words: CAR-TTA coupled production in aerobically growing E. coli RARE. Type of data set: cell-based, Escherichia coli. The following applies: coupled to NiCAR, 2 mM acid, HPLC after 20 h. How it is done:
For the CAR-TTA coupled assay, the strains transformed with a plasmid expressing a TTA and a second plasmid expressing a CAR were grown under identical conditions with the addition of 34 μg/mL chloramphenicol (Cm) to maintain the additional plasmid. Further, 0.2 nM aTc and 1 mM IPTG were added to induce protein expression and 2 mM aldehyde, or acid was added at the time of induction. Following induction, the cultures were grown for 20 h at 30° C. while shaking at 1000 RPM with product concentrations measured via supernatant sampling and submission to HPLC.
Finally, to partially address the toxicity of supplemented aldehydes in fermentative contexts, we investigated whether we could couple a TTA to a carboxylic acid reductase (CAR) to create a steady and low-level supply of aldehydes biosynthesized from carboxylic acid precursors. […]
With the promise of the CAR-TTA coupling, we wanted to investigate the generalizability of this pathway to produce a β-OH-nsAA that has a bio-orthogonal conjugation handle. […] Finally, given the potential to produce novel peptide or protein products in cells, we wanted to confirm the activity of this cascade in growing cells, which was successful for all CAR-TTA pairings with MavCAR producing the highest titer determined by product peak area after 20 h (FIG. 20d). […]

B1: PbTTA: L-threonine transaldolase, SEQ ID NO: 16, Parachlamydiales bacterium, MBN2478762.1 (protein, listed as Parachlamydiales bacterium)
chain: METSLKDFETILHLINKEEIDSNDTIHMTANENIMSKLSKHYLKSTLSYRYHVGMFDDQKNLTVSRSCLIKNSLMLRCLSPIFLLEQQAREYVKKMFFAEYADFRPLSGMHTVFCILSTLTKPNDRVYVFTTESVGHAATVSLLKSLGRKVSFIPFCEKKLDIDLEKLSKQILIEKPNAILFDFGTPFYPLPIREIREIVGNDVKMIYDASHVLGLIAGGQFQNPLLEGCDVLIGNTHKTFPGPQKGMILYKNKSLGKEIATEIFKSAISAQHTHHAIALYVTIIEMYIHGKEYANQIIKNNHALSQALINEGFKIFKRKNQFSLSHMIAITGDFPIDHHVACADLHNSNISTNSRILYDFPAVRIGVQEVTRKGMKEKDMVQLAKFFKEIILDRKNISSKIKEFNNKFNSIEYSLDEIYEKLF
For B1, the Km (in general, the concentration of substrate that gives half-maximal velocity) in data set [1] (apparent, phenylacetaldehyde (14) as aldehyde, ADH coupling, non-linear regression) was 10.9 mM. Besides, in data set [1] (phenylacetaldehyde as the aldehyde substrate), the “L-Thr kcat compared with ObiH” value was “higher measured L-Thr kcat values than ObiH”. Also, the “activity on vanillin and protocatechualdehyde” value in data set [2] (TTA-ADH coupled assay) is given as “activity”. Further, the “activity on a set of aromatic aldehyde substrates (substrate scope)” value in data set [2] (substrates 1, 3, 6, 7, 8, 12, 15) is given as “high activity on a diverse array of substrates”. Moreover, the “β-OH-nsAA production from 4-formyl benzoic acid” value with E. coli RARE strain is “observed a peak corresponding to the β-OH-nsAA”.
